Legend:
Experiment in all cases: indirect ELISA, antibody titrated on gB glycoprotein mutant
[1] = biological target: T1, gB_Towne protein with N405 mutated into glutamine (human cytomegalovirus, strain Towne, UniProt F5HB53 25-700)
T1 chain: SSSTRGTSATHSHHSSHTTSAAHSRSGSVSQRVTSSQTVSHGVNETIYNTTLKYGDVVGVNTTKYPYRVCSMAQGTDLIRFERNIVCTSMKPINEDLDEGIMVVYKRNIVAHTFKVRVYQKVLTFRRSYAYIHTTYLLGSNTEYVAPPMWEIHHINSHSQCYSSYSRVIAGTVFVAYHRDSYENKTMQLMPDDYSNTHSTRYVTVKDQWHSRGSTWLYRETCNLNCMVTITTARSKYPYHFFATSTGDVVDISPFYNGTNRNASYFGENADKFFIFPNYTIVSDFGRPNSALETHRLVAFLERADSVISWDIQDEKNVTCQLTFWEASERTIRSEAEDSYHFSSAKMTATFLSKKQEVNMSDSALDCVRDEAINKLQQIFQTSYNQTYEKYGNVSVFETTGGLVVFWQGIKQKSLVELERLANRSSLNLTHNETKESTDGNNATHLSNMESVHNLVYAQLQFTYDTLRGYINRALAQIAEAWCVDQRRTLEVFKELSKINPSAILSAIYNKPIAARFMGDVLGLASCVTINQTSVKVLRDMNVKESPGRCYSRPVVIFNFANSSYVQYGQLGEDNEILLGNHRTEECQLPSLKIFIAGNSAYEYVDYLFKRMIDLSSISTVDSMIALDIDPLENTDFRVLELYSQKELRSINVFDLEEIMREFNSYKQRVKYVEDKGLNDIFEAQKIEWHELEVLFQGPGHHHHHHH

[2] = biological target: T2, gB_Towne protein with N409 mutated into glutamine (human cytomegalovirus, strain Towne, UniProt F5HB53 25-700)
T2 chain: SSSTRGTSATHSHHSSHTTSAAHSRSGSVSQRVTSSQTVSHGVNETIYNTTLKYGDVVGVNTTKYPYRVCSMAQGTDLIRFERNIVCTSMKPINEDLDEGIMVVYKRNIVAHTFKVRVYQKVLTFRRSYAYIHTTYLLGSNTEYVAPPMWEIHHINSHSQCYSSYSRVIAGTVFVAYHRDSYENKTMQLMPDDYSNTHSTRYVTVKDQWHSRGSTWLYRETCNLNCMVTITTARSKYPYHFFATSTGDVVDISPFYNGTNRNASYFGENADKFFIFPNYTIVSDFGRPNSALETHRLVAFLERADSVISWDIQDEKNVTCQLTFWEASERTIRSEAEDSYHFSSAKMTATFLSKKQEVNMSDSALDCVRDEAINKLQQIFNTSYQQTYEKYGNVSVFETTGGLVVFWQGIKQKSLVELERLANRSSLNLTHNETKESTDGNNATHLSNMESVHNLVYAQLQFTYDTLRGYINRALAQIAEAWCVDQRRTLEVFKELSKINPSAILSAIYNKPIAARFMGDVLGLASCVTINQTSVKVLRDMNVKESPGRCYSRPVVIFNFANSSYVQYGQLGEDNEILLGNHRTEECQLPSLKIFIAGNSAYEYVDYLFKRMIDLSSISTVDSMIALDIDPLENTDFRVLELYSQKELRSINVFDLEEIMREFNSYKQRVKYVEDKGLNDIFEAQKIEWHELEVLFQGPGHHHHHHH

[3] = biological target: T3, gB_Towne protein with N302 mutated into glutamine (human cytomegalovirus, strain Towne, UniProt F5HB53 25-700)
T3 chain: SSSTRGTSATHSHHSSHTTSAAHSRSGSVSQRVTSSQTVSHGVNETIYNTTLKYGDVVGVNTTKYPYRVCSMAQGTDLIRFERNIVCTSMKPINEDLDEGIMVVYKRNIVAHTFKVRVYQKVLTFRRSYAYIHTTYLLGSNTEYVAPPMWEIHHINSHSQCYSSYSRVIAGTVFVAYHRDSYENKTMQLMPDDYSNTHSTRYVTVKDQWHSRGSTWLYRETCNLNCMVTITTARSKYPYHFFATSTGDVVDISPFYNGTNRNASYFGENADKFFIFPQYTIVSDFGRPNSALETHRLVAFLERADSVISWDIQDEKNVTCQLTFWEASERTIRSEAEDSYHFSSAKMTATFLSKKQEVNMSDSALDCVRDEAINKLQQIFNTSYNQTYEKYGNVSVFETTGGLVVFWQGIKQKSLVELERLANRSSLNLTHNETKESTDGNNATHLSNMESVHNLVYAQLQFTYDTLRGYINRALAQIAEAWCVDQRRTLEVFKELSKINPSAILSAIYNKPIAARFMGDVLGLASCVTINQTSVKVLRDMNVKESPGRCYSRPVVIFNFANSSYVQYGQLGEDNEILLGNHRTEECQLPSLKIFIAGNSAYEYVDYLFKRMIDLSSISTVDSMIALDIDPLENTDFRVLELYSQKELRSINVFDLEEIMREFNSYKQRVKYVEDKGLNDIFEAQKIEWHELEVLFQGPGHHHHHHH

[4] = biological target: T4, gB_Towne protein with N383 mutated into glutamine (human cytomegalovirus, strain Towne, UniProt F5HB53 25-700)
T4 chain: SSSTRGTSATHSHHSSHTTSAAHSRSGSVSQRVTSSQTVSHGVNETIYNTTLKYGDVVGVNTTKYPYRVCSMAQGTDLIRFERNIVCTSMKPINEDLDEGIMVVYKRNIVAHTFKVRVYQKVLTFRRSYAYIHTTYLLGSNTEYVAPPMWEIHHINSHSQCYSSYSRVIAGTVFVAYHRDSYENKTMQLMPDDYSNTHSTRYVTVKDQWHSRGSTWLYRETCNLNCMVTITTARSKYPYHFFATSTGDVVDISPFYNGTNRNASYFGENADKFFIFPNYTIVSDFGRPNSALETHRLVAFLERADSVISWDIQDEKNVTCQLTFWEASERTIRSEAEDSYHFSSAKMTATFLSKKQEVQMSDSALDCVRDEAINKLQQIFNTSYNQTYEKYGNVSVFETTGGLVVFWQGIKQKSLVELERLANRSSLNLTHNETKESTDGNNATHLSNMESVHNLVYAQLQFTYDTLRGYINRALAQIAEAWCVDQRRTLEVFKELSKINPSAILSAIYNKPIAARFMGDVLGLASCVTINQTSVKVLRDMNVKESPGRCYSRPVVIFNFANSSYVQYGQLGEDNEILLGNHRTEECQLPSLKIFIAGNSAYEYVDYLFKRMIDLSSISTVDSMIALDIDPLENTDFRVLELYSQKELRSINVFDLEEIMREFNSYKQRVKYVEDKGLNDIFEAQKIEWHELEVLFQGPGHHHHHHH

Measured: binding result

B1: TRN1019 (antibody, V domains shown)
VH: QVQLVQSGAEVKKPGESLKISCKGSGYTFTNYWIGWVRQMPGAGLEWMAIIFPRDSYSAYSPSFQGRVTISVDKSISTAYLHWSSLEASDTAVYYCAIYNDLRSGNSWGQGTPLIVSS
VL: DIQMTQSPSSLSASVGDRVTITCRASQSITKYLNWYQQKPGRAPKLLIHTTSTLQSGVPSRFSGSGSGTDFTLTISSLQLEDFGTYYCQQSFSTLWTFGQGTKLDIKR
notes: Fully human antibody; kappa light chain
binds: [1] | [2] | [3] | [4]

Source: patent publication US20230034906A1 (TRINOMAB BIOTECH, published 2023)
